According to US20150239954:

Target: T1, E(Edans)-AAHisAAK-(Dabsyl)-NH2 (not fully specified)
T1 chain: AAHAAK

B1: aspergillopepsin II (An01g00530) (protein)
chain: EDYSSNWAGAVLIGDGYTKVTGEFTVPSVSAGSSSSSGYGGGYGYYKNKRQSEEYCASAWVGIDGDTCETAILQTGVDFCYEDGQTSYDAWYEWYPDYAYDFNDITISEGDTIKVTVEATSKSSGSATVENLTTGQSVTHTFSGNVEGDLCETNAEWIVEDFESGDSLVAFADFGSVTFTNAEATSDGSTVGPSDATVMDIEQDGTVLTETSVSGDSVTVTYV
enzyme activity in relative fluorescent units (rfu) per minute per mg of protein; cleavage of FRET peptide substrates at pH 4: yields the highest rfu value for aspergillopepsin II
